Measurements: patent publication US20230181729A1 (IMMATICS BIOTECHNOLOGIES, published 2023)

Target: HLA-A*02/PRAME-004 presented on cells (PRAME-004-loaded T2 cells or PRAME-004-positive tumor cell lines) (human)
Assay: cell-based or functional assay

| Binder | EC50 of IFNγ release by CD8+ T cells re-expressing the TCR; T2 cells loaded with PRAME-004 (10 µM to 10 pM) |
| --- | --- |
| TCR R17P1D7 (TCR, V domains shown) V domain 1: QTVTQSQPEMSVQEAETVTLSCTYDTSESDYYLFWYKQPPSRQMILVIRQEAYKQQNATENRFSVNFQKAAKSFSLKISDSQLGDAAMYFCAYRWAQGGSEKLVFGKGTKLTVNP V domain 2: DIYQTPRYLVIGTGKKITLECSQTMGHDKMYWYQQDPGMELHLIHYSYGVNSTEKGDLSSESTVSRIRTEHFPLTLESARPSHTSQYLCATELWSSGGTGELFFGEGSRLTVLE | 1.83 nM |
| TCR R16P1E8 (TCR, V domains shown) V domain 1: QKEVEQDPGPLSVPEGAIVSLNCTYSNSAFQYFMWYRQYSRKGPELLMYTYSSGNKEDGRFTAQVDKSSKYISLFIRDSQPSDSATYLCAMSEAAGNKLTFGGGTRVLVKP V domain 2: EAGVAQSPRYKIIEKRQSVAFWCNPISGHATLYWYQQILGQGPKLLIQFQNNGVVDDSQLPKDRFSAERLKGVDSTLKIQPAKLEDSAVYLCASSYTNQGEAFFGQGTRLTVVE | ~1 µM |
